Test [1] deals with T1, human TROP2-his protein (human, UniProt P09758 27-274).
T1 construct: Biotin-labelled in the ELISAs, unlabelled analyte in Biacore; also called biotin-labeled human TROP2-his protein; biotin human Trop2-his
T1 sequence: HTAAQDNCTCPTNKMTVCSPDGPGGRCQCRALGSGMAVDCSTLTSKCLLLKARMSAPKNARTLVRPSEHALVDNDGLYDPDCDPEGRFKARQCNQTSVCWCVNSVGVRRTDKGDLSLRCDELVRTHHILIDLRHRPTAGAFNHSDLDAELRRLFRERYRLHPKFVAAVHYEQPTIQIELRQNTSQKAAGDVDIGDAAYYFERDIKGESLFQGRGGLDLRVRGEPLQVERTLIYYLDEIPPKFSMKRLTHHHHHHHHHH
Kind of test: capture ELISA, antibody captured on anti-human IgG Fc coat, biotin human TROP2-his in solution, OD(450-630). As for the experimental part: (§1) Plates were washed once with wash buffer (PBS+0.05% v/v Tween-20, PBST) and then blocked with 200 μl/well blocking buffer (5% w/v non-fatty milk in PBST) for 2 hours at 37° C. […] Plates containing captured anti-TROP2 antibodies were incubated with biotin-labeled human TROP2-his protein (prepared in house, SEQ ID NO: 67, 56.7 ng/mL in 2.5% w/v non-fatty milk in PBST, 100 μl/well) for 40 minutes at 37° C., washed 4 times, and incubated with streptavidin conjugated HRP (1:10000 dilution in PBST, Jackson Immuno Research, Cat #016-030-084, 100 μl/well) for 40 minutes at 37° C. After a final wash, plates were incubated with 100 μl/well ELISA substrate TMB (Innoreagents, Cat #TMB-S-002) at room temperature. The reaction was stopped in 3-10 minutes at room temperature with 50 μl/well 1M H₂SO₄, and the absorbance of each well was read on a microplate reader using dual wavelength mode with 450 nm for TMB and 630 nm as the reference wavelength. The OD (450-630) values were plotted against antibody concentration. Data was analyzed using Graphpad Prism software and EC₅₀ values were reported.
For the Capture ELISA, AffiniPure F(ab′)₂ Fragment Goat Anti-Human IgG, Fcγ fragment specific (Jackson Immunoresearch, Cat #109-006-008) was used instead of AffiniPure Goat Anti-Mouse IgG, Fcγ fragment specific, 100 μl/well.

Test [2] addresses T2, cynomolgus TROP2-his protein (cynomolgus monkey, UniProt P09758 27-272 (human entry), limits assumed).
T2 construct: no cleavage site is stated; also called Cynomolgus monkey TROP2-his protein; monkey TROP2
T2 chain: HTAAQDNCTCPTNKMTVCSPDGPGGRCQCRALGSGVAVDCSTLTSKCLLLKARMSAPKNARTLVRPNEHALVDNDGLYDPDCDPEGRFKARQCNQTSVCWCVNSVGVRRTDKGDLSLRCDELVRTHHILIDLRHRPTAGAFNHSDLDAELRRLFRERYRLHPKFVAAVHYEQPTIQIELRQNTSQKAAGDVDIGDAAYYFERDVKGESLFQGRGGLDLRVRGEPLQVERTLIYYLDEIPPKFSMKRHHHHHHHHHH
Kind of test: indirect ELISA, cynomolgus TROP2-his coated, OD(450-630). On the technique in general: An ELISA detects its analyte on a solid surface through an enzyme-linked reagent.

Test [3] addresses T1, human TROP2-his protein. Kind of test: capture ELISA, antibody captured on anti-human IgG Fc coat, biotin human TROP2-his in solution, OD(450-630). How it is done: as §1
For the capture ELISA, AffiniPure Goat Anti-Human IgG, Fcγ fragment specific (Jackson Immuno Research, Cat #109-005-098) was used instead of AffiniPure Goat Anti-Mouse IgG, Fcγ fragment specific, 100 μl/well.
The source holds these as a separate data set.

The target of test [4] is T2, cynomolgus TROP2-his protein. Kind of test: SPR Biacore, antibody captured on anti-human IgG CM5 chip, TROP2-his analyte. As for the experimental part: (§2) Un-reacted moieties on the chip (biosensor) surface were blocked with ethanolamine. […] The antigen-antibody association kinetics was followed for 2 minutes and the dissociation kinetics was followed for 10 minutes. The association and dissociation curves were fit to a 1:1 Langmuir binding model using BIAcore evaluation software.

The target in test [5] is T1, human TROP2-his protein. The test is described as above. How it is done:
as §2

Test [6] addresses T2, cynomolgus TROP2-his protein. Kind of test: indirect ELISA, cynomolgus TROP2-his coated, OD(450-630).
Test [7] has the same target. Kind of test: SPR Biacore, antibody captured on anti-human IgG CM5 chip, TROP2-his analyte. As for the experimental part: as §2
Test [8] concerns the target T1, human TROP2-his protein. Described as above. How it is done: as §2
This is another data set of the same source.

The target in test [9] is T3, full length human TROP2 on 293F-TROP2 cells (human, UniProt P09758 27-323).
T3 construct: also called 293F-TROP2 cells (clone ID #3A8); cell surface TROP2
T3 sequence: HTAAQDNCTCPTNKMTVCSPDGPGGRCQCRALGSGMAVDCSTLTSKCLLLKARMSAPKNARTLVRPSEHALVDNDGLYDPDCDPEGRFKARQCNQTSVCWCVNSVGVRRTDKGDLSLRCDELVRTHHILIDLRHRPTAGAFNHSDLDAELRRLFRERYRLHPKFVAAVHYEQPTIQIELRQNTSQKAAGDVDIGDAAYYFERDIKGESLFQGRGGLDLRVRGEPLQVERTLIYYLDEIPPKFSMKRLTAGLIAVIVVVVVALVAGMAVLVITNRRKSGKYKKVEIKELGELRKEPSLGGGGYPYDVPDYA
Kind of test: FACS on 293F-TROP2 cells, MFI.

For test [10], the target named is T3, full length human TROP2 on 293F-TROP2 …. Kind of test: FACS on 293F-TROP2 cells, MFI. As for the experimental part: (§3) The 293F-TROP2 cells were harvested from cell culture flasks, washed twice and re-suspended in phosphate buffered saline (PBS) containing 2% v/v Fetal Bovine Serum (FACS buffer). […] Following an incubation of 40 minutes at 4° C. in dark, cells were washed twice and re-suspended in FACS buffer. Fluorescence was measured using a Becton Dickinson FACS Canto II-HTS equipment, and the MFI (mean fluorescence intensity) was plotted against antibody concentration. Data was analyzed using Graphpad Prism software and EC₅₀ values were reported.
This is another data set of the same source.

The target in test [11] is T1, human TROP2-his protein. Kind of test: competitive ELISA: BM1 coated, antibody premixed with biotin human TROP2-his; blocked: binding of TROP2-his to coated BM1; partial only: OD falls from about 1.9 to a plateau of about 1.3.
In test [12] the target is T2, cynomolgus TROP2-his protein. Kind of test: SPR Biacore T200, mAb captured on anti-mouse IgG CM5 chip, TROP2-his analyte. How it is done:
as §2
In general terms: Surface plasmon resonance follows binding to a sensor surface in real time, without labels.

Test [13] deals with T1, human TROP2-his protein. The description is as above. As for the experimental part: as §2
The target in test [14] is T1, human TROP2-his protein. Kind of test: competitive ELISA: BM1 coated at 1 ug/mL, antibody premixed with biotin human TROP2-his; blocked: binding of TROP2-his to coated BM1. As for the experimental part: The mouse anti-TROP2 antibodies were tested for epitope binding in a competitive ELISA assay. […] ELISA plates were washed once with wash buffer (PBS+0.05% v/v Tween-20, PBST) and then blocked with 200 μl blocking buffer (5% w/v non-fatty milk in PBST) for 2 hours at 37° C. While blocking, the anti-TROP2 antibodies or controls were diluted with biotin labeled human TROP2-his protein (SEQ ID NO: 67, 34 ng/mL in 2.5% wA non-fatty milk in PBST), starting at 80 nM with a 5-fold serial dilution, and incubated at room temperature for 40 minutes. After plate washing for 4 times, the antibody/TROP2-his protein mixtures were added to the antibody coated plates, 100 μl per well. After incubation at 37° C. for 40 minutes, plates were washed 4 times again using wash buffer. Then the plates were added and incubated with 100 μl Peroxidase Streptavidin (1:10000 dilution in PBST buffer. Jackson Immunoresearch, Cat #016-030-084) for 40 minutes at 37° C. Plates were washed again using wash buffer. Finally, TMB was added and the reaction was stopped using 1M H₂SO₄. The absorbance of each well was read on a microplate reader using dual wavelength mode with 450 nm for TMB and 630 nm as the reference wavelength, and the OD (450-630) values were plotted against antibody concentration. Data was analyzed using Graphpad Prism software and IC₅₀ values were reported.

Test [15] deals with T2, cynomolgus TROP2-his protein. Kind of test: indirect ELISA, cynomolgus TROP2-his coated at 2 ug/mL, OD(450-630). How it is done: The anti-TROP2 antibodies of the disclosure were tested for their cross-reaction with cynomolgus TROP2 proteins. Briefly, 96-well micro plates were coated with 100 μl 2 μg/ml cynomolgus TROP2-his proteins (prepared in-house with SEQ ID NO: 70) in carbonate/bicarbonate buffer (pH 9.6) overnight at 4° C. ELISA plates were washed once with wash buffer (PBS+0.05% v/v Tween-20, PBST) and then blocked with 200 μl/well blocking buffer (5% w/v non-fatty milk in PBST) for 2 hours at 37° C. […] After a final wash, plates were incubated with 100 μl/well TMB (Innoreagents) at room temperature. The reaction was stopped 3-10 minutes later at room temperature with 50 μl/well 1M H₂SO₄, and the absorbance of each well was read on a microplate reader using dual wavelength mode with 450 nm for TMB and 630 nm as the reference wavelength. The OD (450-630) values were plotted against antibody concentration. Data was analyzed using Graphpad Prism software and EC₅₀ values were reported.

Test [16] concerns the target T1, human TROP2-his protein. Kind of test: capture ELISA, antibody captured on anti-mouse IgG Fc coat, biotin human TROP2-his in solution, OD(450-630). How it is done: as §1
Test [17] addresses T3, full length human TROP2 on 293F-TROP2 …. Kind of test: FACS on 293F-TROP2 cells, MFI. How it is done:
The binding activity of the mouse anti-TROP2 antibodies to cell surface TROP2 proteins was tested by flow cytometry (FACS), using Biosion in-house prepared 293F-TROP2 cells (clone ID #3A8) stably expressing full length human TROP2s (uniprot #P09758, SEQ ID NO.: 71) on cell membrane. The 293F-TROP2 cells were prepared by transfecting 293F cells (Thermofisher Inc., Cat #11625019) with a pCMV-T-P plasmid inserted with human TROP2 coding sequence between EcoRI and XbaI sites, following the instruction of lipofectamine 3000 transfection reagent (Thermo Fisher).
as §3
The source holds these as a separate data set.

Read-outs that look alike come from different tables or passages of the source.

Experimental findings from patent US20240207432A1 (BIOSION, published 2024) are described below.

Usually EC50 stands for the concentration at which the effect is half-maximal. The Kd is the constant that tells how readily two partners part at equilibrium. As a reminder, the koff is the first-order rate constant of dissociation. As usually defined, the kon is a measure of how fast the partners come together. A higher kon goes with fast association. Usually IC50 stands for the concentration that gives 50% inhibition. A high value points to lower potency.

B1: chimeric A1E4F7D4 (antibody, human IgG1, kappa, V domains shown)
VH: QVQLQQSGAELAKPGTSVKMSCEASGYSFTTHWIHWMKQRPGQGLEWIGTIFPSNAYAVYNQKFRDRAIMTADRSSTTAYIQLTGLTSEDSAVYYCARASYFDYWGQGTTLTVSS
VL: DILLTQSPATLSVSPGERVTFSCRASQNIGTSIHWFQQRTTGSPRLLIKYASESISGIPSRFSGSGSGTDFTLHINSVESEDIAHYYCQHSHSWPFTFGSGTKLEIQR
notes: also called chimeric antibody A1E4F7D4
Consider B1, for which the EC50 with human TROP2-his protein [1] is 0.0732 nM; in test [2], 0.967 nM; in the test with human TROP2-his protein [3] it was 0.0979 nM; in [6], 0.237 nM; in test [9] it was 0.36 nM; in test [10], 0.575 nM. For the same molecule, the Kd in [4] was 0.247 nM; with human TROP2-his protein [5] it was 0.0326 nM; in [7], 0.134 nM; with human TROP2-his protein [8], 0.185 nM. Besides, the koff in test [4] is 0.000171 s⁻¹; with human TROP2-his protein [5], 3.13e-05 s⁻¹; in test [7] it was 0.000163 s⁻¹; with human TROP2-his protein [8], 0.000194 s⁻¹. Further, the kon was 692000 M⁻¹ s⁻¹ in [4], 961000 M⁻¹ s⁻¹ with human TROP2-his protein [5], 1.22e+06 M⁻¹ s⁻¹ in [7] and 1.05e+06 M⁻¹ s⁻¹ with human TROP2-his protein [8]. Further, in the test with human TROP2-his protein [11], the half-maximal inhibitory concentration (IC50) is 0.447 nM.

B2: mouse antibody A1B12D2B4E7B3 (antibody, V domains shown)
VH: EVQLQQSGPELVKPGASVKMSCKASGFTFTDYYMNWVKQSHGKSLEWIGYIYPNHGGTGYNQKFKDKATLTVDKSSSTAYMELRSLTSDDSAVYYCARENYGYAMDYWGQGTSVTVSS
VL: DVVMTQTPLSLPVSLGDQASISCRSSQSLVHGDGNTYLHWFLQKPGQSPKLLIYTVSNRFSGVPDRFSGSGSGTDFTLKINRVEAEDLGIYFCSQTTHVPTFGGGTKLEIK
notes: Mouse monoclonal IgG purified from hybridoma supernatant
B2: the dissociation constant (Kd) in test [12] was determined as 1.12 nM; in the test with human TROP2-his protein [13] it was 1.06 nM. Further, the koff was found to be 0.000124 s⁻¹ in [12] and 8.92e-05 s⁻¹ with human TROP2-his protein [13]. In addition, the values for the kon (in test [12]; in the test with human TROP2-his protein [13]) were 111000 M⁻¹ s⁻¹ and 84000 M⁻¹ s⁻¹, respectively. In the test with human TROP2-his protein [14], this molecule yielded an IC50 of 1.55 nM. In addition, the results for the EC50 (in test [15]; with human TROP2-his protein [16]; in test [17]) were 0.578 nM, 0.248 nM and 0.896 nM, respectively.
